This note sets out measurements from the DeepSol protein solubility set.

A short description of this data set: soluble on expression in E. coli; label from the status in PepcDB or PDB records.
Consider “MGSDKIHHHHHHMYDLQELEAFVSVVRTGSLTASTRDLGLPKSTLSRRIRQLEENVGQPLLLRQSRKIVPNDAGRVFYRYCNDILELVVQGREALDELKAEVTGKLELRCHESFVRGWFSGVVESFMADHDDLRVAIHTQRNLPEAVEDGVCIWLGETGETALRQEVLGVLKQGIFGSPAYFRQHGKPAAPGELAHHPWVDLLGMADTGVILHHSRQGNFPLSLPDRRFTVDQFNVQGDAIAAGRGLGLMPVWLVERRLTAHPGSFQSCLPEWYGPDLPVTLLYPHGVLPRRVRAFIAHLRSCIPEEWTGGGGTATQAVPKSGTHHSNT”, for which the “soluble on expression in E. coli” value was “not soluble”.

Consider “MAELNTHVNVKEKIYAVRSVVPNKSNNEIVLVLQQFDFNVDKAVQAFVDGSAIQVLKEWNMTGKKNNKRKRSKSKQHQGNKDAKDKVERPEAGPLQPQPPQIQNGPMNGCEKDSSSTDSANEKPALIPREKKISILEEPSKALRGVTGPNIEKSVKDLQRCTVSLTRYRVMIKEEVDSSVKKIKAAFAELHNCIIDKEVSLMAEMDKVKEEAMEILTARQKKAEELKRLTDLASQMAEMQLAELRAEIKHFVSERKYDEELGKAARFSCDIEQLKAQIMLCGEITHPKNNYSSRTPCSSLLPLLNAHAATSGKQSNFSRKSSTHNKPSEGKAANPKMVSSLPSTADPSHQTMPANKQNGSSNQRRRFNPQYHNNRLNGPAKSQGSGNEAEPLGKGNSRHEHRRQPHNGFRPKNKGGAKNQEASLGMKTPEAPAHSEKPRRRQHAADTSEARPFRGSVGRVSQCNLCPTRIEVSTDAAVLSVPAVTLVA”, for which the “soluble on expression in E. coli” value is listed as “soluble”.

Consider “MRKIVLFGDSITAGYLDEAVSPVLVDLVKRDIAAMGLEEVAVINAGMPGDTTEDGLKRLNKEVLIEKPDEVVIFFGANDASLDRNITVATFRENLETMIHEIGSEKVILITPPYADSGRRPERPQTRIKELVKVAQEVGAAHNLPVIDLYKAMTVYPGTDEFLQADGLHFSQVGYELLGALIVREIKGRLKPKQA”, for which the “soluble on expression in E. coli” value is on record as “soluble”.

As for “MLIKIAPSILSADFSKLGEEVLRIEKAGADLVHIDVMDGHFVPNITIGPPVVKSLKKVSKLPFDVHLMIENPDMYIESFADAGADIISVHAEACRHLHRTIQKIKQLGIKAAVALNPATPLCAVEWVMEDVDMILLMTVNPGFGGQKYINGVTRKIEELERIVESRGLNIDIEVDGGIDTETVQYVTKAGANVIVSGSTIFAAEDTAKIIQELRMNSYRK”, the “soluble on expression in E. coli” value is listed as “not soluble”.

With “MQLVVARIGRAHGIKGEVTVEVRTDEPELRLGPGAVLATDPASTGPLTIESGRVHSGRLLLRFAGVHDRTGAEALRNTLLIADVDPDERPEDEDEYYDHQLIDLDVVTEDGTEVGRITEISHLPTQDLFVVERPDGSEVYVPFVSEIVTGIDLDAQRAVIDPPPGLIDDRAEIASARDAGAEDAGDEALEHHHHHH”, the “soluble on expression in E. coli” value is “soluble”.

Regarding “MGSDKIHHHHHHMSYSAKVLWGEGLFLRPQHFQRQDAYHEARLFESIQAIQPYNWGVRSVRFDRDALGSNVLRASELSLVFPDGALYSAPQADELPPPIALDTLPEGINEFTFYLALHPLRETGSNYADDRDAGFVSRFVSEQASVADHFTDAAEADITFLKTNVKLIAHSEPRDQLLSIPLVRVRRTATSGFEIDDGFVPPCLAIEASPILHQRLRQLIDALQAKVNALYGFHREPTKNIIEFRSGDIASFWLLHTASAAFAALAHLHQHSALHPERLFQELLRLAGQLMTFSKGYVLADLPAYRHDDPGPGFARLDSILRELLETVISTRYFAITLEEVRPSFHVGRLDSGKIDDKTAFYLAVSADMPSVELVDAVPARFKVGAPDDVDKLVLSAMPGVRLAYTPQVPPAIPVRPGACYFALDARSPLYERMLQAQSAMIYAPSGINDLKFELIAVTS”, the “soluble on expression in E. coli” value is “not soluble”.

For “MGSDKIHHHHHHMKKIPCVMMRGGTSRGAFLLAEHLPEDQTQRDKILMAIMGSGNDLEIDGIGGGNPLTSKVAIISRSSDPRADVDYLFAQVIVHEQRVDTTPNCGNMLSGVGAFAIENGLIAATSPVTRVRIRNVNTGTFIEADVQTPNGVVEYEGSARIDGVPGTAAPVALTFLNAAGTKTGKVFPTDNQIDYFDDVPVTCIDMAMPVVIIPAEYLGKTGYELPAELDADKALLARIESIRLQAGKAMGLGDVSNMVIPKPVLISPAQKGGAINVRYFMPHSCHRALAITGAIAISSSCALEGTVTRQIVPSVGYGNINIEHPSGALDVHLSNEGQDATTLRASVIRTTRKIFSGEVYLP”, the “soluble on expression in E. coli” value is “not soluble”.

On to “ADLPGKGITVNPVQSTITEETFQTLLVSRALEKLGYTVNKPSEVDYNVGYTSLASGDATFTAVNWTPLHDNMYEAAGGDKKFYREGVFVNGAAQGYLIDKKTADQYKITNIAQLKDPKIAKLFDTNGDGKADLTGCNPGWGCEGAINHQLAAYELTNTVTHNQGNYAAMMADTISRYKEGKPVFYYTWTPYWVSNELKPGKDVVWLQVPFSALPGDKNADTKLPNGANYGFPVSTMHIVANKAWAEKNPAAAKLFAIMQLPVADINAQNAIMHDGKASEGDIQGHVDGWIKAHQQQFDGWVNEALAAQK”, for which the “soluble on expression in E. coli” value is listed as “soluble”.

On to “MGSDKIHHHHHHMIDPAGRTTAWEYDAYGSLLVQTLPDGSAVRTEFDLDHRPVCMTLIGGRQWGYEWNTFGNLLAQSDPSGAISRYTYDEYGQLVEHTGPRGASTRFDYHPDGNLAAQIDALGHRTQYRYDARGYLGEAIDALGQQSQYEYDRNGHLTRAIEPGGREIHCAYDADGNLSRHRDPMGHVTQMEYSALGQVSRRLAPDGTTVEYRYDTEEQLIGVVNERSELYALERDALGRIVVETDYWGQARRYRYGAAGELLCSTDPLGQTVEYRYDWLGRIVQKRVPHPEQDEALQIDSFAYDRHGDLVLAENPSCRVEFDYDAAGRMIEERQGDDFTIASDYDEAVTCPLR”, for which the “soluble on expression in E. coli” value is “not soluble”.

“MVEKMNEEVMDSKELQVGDVVTGSVTKVEEKQVLVNVGYKTDGVIPISELANVHIEKASDVVELDQTLELKIIKLEEDDLVLSKRAVDAEKAWVELQEKFTSGHVFDVIVKDIVNGGLVVDLGVRGFIPASLVEVHYVEDFTDYKGKTLAVKIVELDREKNRVILSHKAVVELELDSKKKEAISSLKEGDVVEGTVQRLTDFGAFVNVGGVDGLVHISQISHERVEQPSEVLEQGQKVKVKVLSVDADTQRISLSIKAAQPGPWENVAGEIKAGDIREGVVKRLVTFGAFVEILPGVEGLVHVSQIANRHVKNPNEVLEMGQEVKVKVLEVHVAEKRISLSIKEALEENNVTEDYSQYEPNADSATFQLSDIIGEQLKKLKKLEHHHHHH”: the “soluble on expression in E. coli” value was “soluble”.

Take “MRKMADPLVPKEALEWFKSKGIKPGFDYRDVWKEEQANAFTVAKMLNADLLVEVKQLVEDAIGQGQTFEQFRDILKPLLVKSGWWGVQTMQDPLTDETKLVQLGSEGRIKTIYKTNMRTARSAGQWERIQRTKRTMPYLLYQLGPSEQHRIEHLKWNNTLLPADDPWWDVHMTPNGWGCKCWIRQVSQYEADKLIAAGTVKTTVPASKNKQWVNRRTGEVEVLPEGIDPGWNYNPGKNREKMLAADLALKESRMRQTLANGS”: the “soluble on expression in E. coli” value was “soluble”.

“MASSSSLSLSFPSSSLSRTWDYDVFPSFHGEDVRKAFLSQILKKEFGRKAINFFVDHEMERGEFIGPVLKQAIKGSKIALVLLSKNYASSWCCLDELVEIMKKESGQTVITIFYEVDPNEVKKQTGDFGKAFKETCQGKTEEKVQTWRKALEGVGLATIAGFHSSNWFVFFI”: the “soluble on expression in E. coli” value is on record as “not soluble”.

For “SLARSPSVSAGTRPHAGEHTDTSPISSAVSAPSPSSLPLVFSPQPSVSSSSLPLSSSSLARVSSSPQPSASSASLPLSSSRQSGEALGSSGAASSESSRERQGKLRLRHPRQRKPFLLQVLHAEHRCHNPRELARVQRAGGSIFAGRVGGVLEPSRSVGDFDVKDAQPPGVLIATPEVCRVKVRKPTLVLLGTDGVWDMLCSADVLACVKKVTQFWQLLLAAFRERMEELQEEATEKQENEKERGEGDQVRESSGNGKG”, the “soluble on expression in E. coli” value is recorded as “soluble”.

Turning to “MSLKVFYMNVVIITGAASGIGHALSQVCLSNGKTIVMVDKNQDKLHTEAQSFMTKFSPEHVICFACDVTQPSEVERLAEYSCKQLGQVDWIFNNAGIIGNLLPAWELQENDINQVMQVNLHGMLNIIRSFMPYLFKQNFRSHIINMASLYALCTGSQMAAYSMSKHAVLALSESLYFDLNRLKKPVDVSVVFPSFTDTSLLASSGKLNHSPIHNQLNNLLAHSRPAIEVAEHIVREVEQKRFYILPDKEVKGYCEDRTKAILLQENPHRNSVEQLMCSLLKRQSSEANEGHHHHHH”, the “soluble on expression in E. coli” value is given as “soluble”.

Regarding “LKYMYKIDDDKKYILYCPTWRGNQRKEVTQINLKDLLKYLPENYEIIVKLHPNESHLRTRYNQIDNRIHCYFNELVDIQELYILSECMITDYSSTIFDYIHLNKPVFILQEDEQQYKQSVGFYFDLFEVGDFLKASLNERMLAKQICSTDYINYSKVVHRLMKQDSSKSSEKLMAEILGEPEYPSSSNCKQQIS”, the “soluble on expression in E. coli” value is recorded as “not soluble”.

In the case of “MISPKKEITSSKYQKIAISVAQRIANGEYEVGEKLKSRTTIASTFNVSPETARKGLNILADLKILTLKHGSGAIVLSKERAIEFINQYESTHSIAVLKEKIRETINDQGKAMEKMAVLVNDFLMQSQSVSKQYPLAPYEIICNQDSEHFGKSIGVLNIWHQTGATIVAIEHAGQFIVSPGPYSVIEKGDHIYFVGDESVISRMKTFFNLRKGL”, the “soluble on expression in E. coli” value was “not soluble”.

“DDEEDEGSTIARHFHELWDMANKQDVLELILEQDIQVEEPAIFSKAIINFKADLAKKTLGPRGREVLNRLMPKVFDAVFAHPDAQFGLPRVLHLLHNICTRTTYLELLDEHPAALVQLVRLCTASPMISEQLSRYPILLDELIDPQQLYNPIPLDSYRTELRDFLARIPEDDMEQQMEALRQFKQICILRIAAADIAGVLPVMKVSDHLTYLAEAIVEAVVSQAWLQVSEKYGEPTHVKDREGKGFAVIGYGKVGGWELGYNSDLDIVFMHDCPVNVYTDGKKEIDGRQFYLRLAQRIIHIFSTRTASGILYEVDTRLRPSGASGLLVSPTDAFDDYQHQDAWTWEHQALVRARMIYGDEPLAIAFHNTRHDVLCKPRDEQTLKKEVVEMREKMRDHLGGKKSGRFMIKQDVGGITDIEFLAQYLVLNYSHEKPKLTRWCDNVRIYETLIAQGVMEEDQAMQLIRAYTAMRNEIHHRNLLNLDADVVEDKFVAEREWVKQAWNQWFA”: the “soluble on expression in E. coli” value is given as “soluble”.

On to “MNNLKLDIVEQDDKAIVRVQGDIDAYNSSELKEQLRNFISTTSKKKIVLDLSSVSYMDSAGLGTLVVILKDAKINGKEFILSSLKESISRILKLTHLDKIFKITDTVEEA”, for which the “soluble on expression in E. coli” value is reported as “soluble”.

Take “MSLIAVLRINHRPFRDKRITTHVALTARAFGASSILVDEKDETLEQTINKVVENFGGNFFIKSGVDWKREFRNFKGIRVHLTMYGRPLEDVVKEIRESKKDVMILVGSEKVPFEAYEIADYNVSVTNQPISEVSALAIFLDRFYDGEELNWRFTGKINVYPSERGKKVKIIPDEQGCLDLLYKYGASDYLINHVKSVKELAVAIAKKTNADINLVTAGALLHDIGRTQVQGITHAVVGADILRREGIDDRVVSIVEKHIGAGIQSEEAVKLGLPPDNYVPETIEEMIVAHADNLFAGDKRLKLQQVVDNYRKKGLEDAAERIAKLHKFLSTVIGQDMDEIEGHHHHHH”: the “soluble on expression in E. coli” value is “soluble”.

Turning to “MSNTDNSDKNTKPTGYRPPQTDFNTEFGNNLDYPRLGSVSFRRGTLTDNQESLWDANWPILGKDLTDAEDQRIDVAEWFGRCGHKTILEIGSGTGTSTAAMAPLEADTNIIAVELYKPGLAKLLGAVVRGDISNVRMIRGDGVEVLTRMLPEESLDGVRIYFPDPWPKARHHKRRIIQSGVLNLIASRLKPGGVLHVATDHADYAEWITELVNVEPQLEFMGWPWDECPQLTDRQVITKFEGKGLDKDHTITEFLWRRK”, the “soluble on expression in E. coli” value is on record as “not soluble”.
